Consider two substances from patent US20050214212A1.

Test [1] deals with glutathione-S-transferase fusion protein containing domains v3-v10 of human CD44 (human) (UniProt P16070). Description: SPR (BIAcore 2000), GST/CD44v3-v10 immobilised on CM5.
For test [2] the target is unchanged. Kind of test: SPR (BIAcore 2000), GST/CD44v3-v10 immobilised on CM5, MAb 8-67 nM injected.
Test [3] deals with CD44v6 (human CD44 variant isoform containing exon v6) on human tumour cells (human) (UniProt P16070). Description: immunoreactivity assay, 125I-labelled MAb on glutaraldehyde-fixed UM-SCC-11B cells, experiment 2.
Test [4] shares this target. Kind of test: immunoreactivity assay, 186Re-MAG3-labelled MAb on fixed UM-SCC-11B cells.
Test [5] shares this target. Description: immunoreactivity assay on fixed UM-SCC-11B cells, linear extrapolation to infinite antigen excess, experiment 2.
Test [6] has the same target. Kind of test: competitive cell ELISA (A431 cells, vs BIWA 1). For orientation: ELISA stands for enzyme-linked immunosorbent assay.
Target sequence in this assay (P16070 21-742, change not shown): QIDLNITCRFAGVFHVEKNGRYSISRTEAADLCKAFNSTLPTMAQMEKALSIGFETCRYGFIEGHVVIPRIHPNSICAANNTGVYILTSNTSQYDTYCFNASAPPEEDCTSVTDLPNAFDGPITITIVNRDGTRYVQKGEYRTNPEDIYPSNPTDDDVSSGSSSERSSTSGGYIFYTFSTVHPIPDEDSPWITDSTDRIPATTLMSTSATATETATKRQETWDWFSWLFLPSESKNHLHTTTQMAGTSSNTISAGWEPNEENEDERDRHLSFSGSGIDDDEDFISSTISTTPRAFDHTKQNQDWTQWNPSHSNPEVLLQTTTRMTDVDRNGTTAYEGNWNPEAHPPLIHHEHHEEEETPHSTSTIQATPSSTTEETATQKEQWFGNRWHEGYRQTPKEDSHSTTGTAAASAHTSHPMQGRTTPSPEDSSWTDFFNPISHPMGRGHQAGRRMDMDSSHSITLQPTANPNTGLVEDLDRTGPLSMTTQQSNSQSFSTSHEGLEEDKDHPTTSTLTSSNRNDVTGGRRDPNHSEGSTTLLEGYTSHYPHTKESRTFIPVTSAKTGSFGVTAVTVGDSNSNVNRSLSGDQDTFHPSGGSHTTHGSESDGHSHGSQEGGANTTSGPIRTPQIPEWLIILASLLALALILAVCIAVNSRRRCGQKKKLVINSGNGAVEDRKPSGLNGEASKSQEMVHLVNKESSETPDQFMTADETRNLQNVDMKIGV

Chain of glutathione-S-transferase fusion protein containing domains v3-v10 of human CD44 (human) (P16070 267-604): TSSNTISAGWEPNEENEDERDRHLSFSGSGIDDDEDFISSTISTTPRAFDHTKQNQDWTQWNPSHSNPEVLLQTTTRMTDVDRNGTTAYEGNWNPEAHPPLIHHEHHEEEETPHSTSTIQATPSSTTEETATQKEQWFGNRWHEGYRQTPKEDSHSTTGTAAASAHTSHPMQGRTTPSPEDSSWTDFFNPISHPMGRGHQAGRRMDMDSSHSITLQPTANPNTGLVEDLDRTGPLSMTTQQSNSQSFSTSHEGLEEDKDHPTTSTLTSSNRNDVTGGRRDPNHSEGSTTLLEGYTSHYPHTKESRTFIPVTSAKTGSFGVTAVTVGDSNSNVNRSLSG

Take “cMAb BIWA 2 (chimeric antibody: BIWA 1 variable regions, human gamma-1 and kappa constant regions)”: in test [1], the Kd relative to murine BIWA 1 came out at 0.7. Further, in test [2], the Kd – broadly, the constant that tells how readily two partners part at equilibrium – was determined as 240 pM; the koff (as a rule, the rate constant with which the complex falls apart) is 4.1e-05 s⁻¹; the kon (usually a measure of how fast the partners come together) stood at 170000 M⁻¹ s⁻¹. The substance also showed a Binding to 5 × 10^6 cells (%) in test [3] of 80.5%. This substance also came in with an immunoreactive fraction in test [4] above 75%. In test [5], the Binding Extrapolated (%) (immunoreactive fraction) is 79.9%.
As to “hMAb BIWA 4 (bivatuzumab), humanised CDR-grafted antibody without framework modifications”, the IC50 (in general, the midpoint of a concentration-inhibition curve) in test [6] was determined as 8.01 µg/mL.
